Consider 1 molecule from paper PMC11952088 (Science Advances, 2025).

The target of the test is SARS-CoV-2 XBB.1.5 RBD (BLI) (SARS-CoV-2, Omicron XBB.1.5, strain). Description: BLI. The conditions noted are these: both partners purified.

As a reminder, the Kd is the concentration at which binding is half-saturated. The low end stands for a tighter complex, the high end for a looser complex.

B1: AZD3152 (antibody, V domains shown)
VH: EVQLVESGGGLVQPGRSLRLSCAASGFPFDDYAIHWVRLAPGKGLEWVSSISWDSGSIGYADSVKGRFTISRDNAKNSLYLQMNSLRAEDTALYYCAKGAFPGYSSGWYYGLEVWGQGTTVTVSS
VL: QSVVTQPPSASGSLGQSVTISCTGTSSDVGGYNYVSWYQQHPGKAPKLMIFEVSKRPSGVPDRFSGSKSGNTASLTVSGLQAEDEADYYCSSYAGNKGVFGGGTKLTVL
Consider B1, for which the Kd is 2 nM.
